# Results taken from article PMC12328635.
# T1: SC35 (GST-SC35) (Populus tomentosa, UniProt A0AAD6QWB7 1-302)
# T1 sequence: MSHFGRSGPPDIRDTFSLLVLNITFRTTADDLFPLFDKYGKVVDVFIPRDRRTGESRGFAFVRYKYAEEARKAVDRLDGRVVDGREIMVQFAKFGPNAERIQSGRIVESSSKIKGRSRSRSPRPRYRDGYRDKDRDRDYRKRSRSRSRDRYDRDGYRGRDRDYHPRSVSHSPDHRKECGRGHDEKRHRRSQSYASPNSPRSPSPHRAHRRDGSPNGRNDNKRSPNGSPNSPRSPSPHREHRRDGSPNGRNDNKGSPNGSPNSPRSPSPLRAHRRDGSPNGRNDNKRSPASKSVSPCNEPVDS
# Molecular target: T1, SC35 (GST-SC35)
# Test: EMSA
row,Binder,binding result
1,CAUUAUGUUGAGGAAUUAGAAGAUAAGGUG (ssRNA) [Probe1],binds
2,UUAGAGAGAGUGGAAUUAGUGGGUUUGGUU (ssRNA) [Probe2],binds
3,CAUUAUGUUGACCUUAAUCAAGAUAAGGUG (ssRNA) [Mutation-Probe1],no binding
4,UUAGAGAGAGUCCUUAAUCUGGGUUUGGUU (ssRNA) [Mutation-Probe2],no binding
